From patent US20240240209A1, “SYNTHESIS OF ENANTIOPURE CIS-A-IRONE FROM A RENEWABLE CARBON SOURCE” (Agency for Science, Technology and Research, priority 2021, published 2024)
Where a chain is given by its changes, count along the chain named. Names may count otherwise. “Also recorded” adds a separate entry of the source.

B1: D176K (protein)
chain: MPQEARTPQQQVTADEVGDWYDKFGEVYHLTLGESVHCGLWFPPDAPVPQDMELVTMSSQAQDRFTDYLIETLDPKAGQHLLDIGCGTGRPALKAARQRGIAVTGVAVSKEQIAAANRLAAGHGLTERLTFEVADAMRLPYEDESFDCAWAIESLDHMDRAKALGEAWRVLKPGGKLLVAEEVVTEELTEPETALFETLFALNVPPRLGEFFDIVSGAGFHTLSLKDLSADLAMTMNVFALGVYSRRAEFTERFGAEFVDGLLAGLGSAQETVIRKTRFFMATLRKPAV
modifications: Modified from pMT1
B2: D159L (protein)
chain: B1 chain with D159L, K176D
modifications: Modified from pMT1
B3: D176V (protein)
chain: B1 chain with K176V
modifications: Modified from pMT1
B4: P191V (protein)
chain: B1 chain with K176D, P191V
modifications: Modified from pMT1
B5: D176R (protein)
chain: B1 chain with K176R
modifications: Modified from pMT1
B6: D176L: pMT12 with D176L (protein)
chain: B1 chain with K176L
modifications: Modified from pMT1
B7: E190Q (protein)
chain: B1 chain with K176D, E190Q
modifications: Modified from pMT1
B8: D176L, A248V: pMT12 with D176L and A248V (protein)
chain: B1 chain with K176L, A248V
modifications: Modified from pMT1
B9: Q11H (protein)
chain: B1 chain with Q11H, K176D
modifications: Modified from pMT1
B10: D176Y (protein)
chain: B1 chain with K176Y
modifications: Modified from pMT1
B11: Q60R (protein)
chain: B1 chain with Q11H, K176D
modifications: Modified from pMT1
B12: Q60K (protein)
chain: B1 chain with Q60R, P91T, D156C, K176D, D231N
modifications: Modified from pMT1
B13: pMT1_E153D: pMT1 with E153D (protein)
chain: MPQEARTPQQQVTADEVGDWYDKFGEVYHLTLGESVHCGLWFPPDAPVPQDMELVTMSSQAQDRYTDYLIETLDPKAGQHLLDIGCGTGRTALKAARQRGIAVTGVAVSKEQIAAANRLAAGHGLTERLTFEVADAMRLPYEDESFDCAWAIDSLCHMDRAKALGEAWRVLKPGGDLLVLESVVTEELTEPETALFETLYAANVPPRLGEFFDIVSGAGFHTLSLKDLSANLAMTMNVFALGVYSRRAEFTERFGAEFVDGLLAGLGSAQETLIRKTRFFMATLRKPAV
B14: pMT1_E153A: pMT1 with E153A (protein)
chain: B13 chain with D153A
B15: pMT1_E153C: pMT1 with E153C (protein)
chain: B13 chain with D153C
B16: pMT1_M236A: pMT1 with M236A (protein)
chain: B13 chain with D153E, M236A
B17: pMT1_M236D: pMT1 with M236D (protein)
chain: B13 chain with D153E, M236D
B18: pMT1_M236E: pMT1 with M236E (protein)
chain: B13 chain with D153E, M236E
B19: pMT1_M236C: pMT1 with M236C (protein)
chain: B13 chain with D153E, M236C
B20: pMT1_R160D (protein)
chain: B13 chain with D153E, R160D
B21: pMT1_R160E (protein)
chain: B13 chain with D153E, R160E
B22: pMT1_R160C: pMT1 with R160C (protein)
chain: B13 chain with D153E, R160C
B23: pMT1_S182E: pMT1 with S182E (protein)
chain: B13 chain with D153E, S182E
B24: pMT1_Y200E: pMT1 with Y200E (protein)
chain: B13 chain with D153E, Y200E
B25: pMT1_Y200C: pMT1 with Y200C (protein)
chain: B13 chain with D153E, Y200C
B26: pMT1_Y200D: pMT1 with Y200D (protein)
chain: B13 chain with D153E, Y200D

Assay: In-vivo cis-α-irone production screening of pMT7 and pMT12 mutants
Assay type: cell-based, Escherichia coli
Conditions: mutations made to pMT12; normalized to pMT12 (=1)
Excerpt: Q60 was identified as another possible mutation site.
FIGS. 24a and 24b show the in-vivo and in-vitro cis-α-irone production of other possible single mutations to pMT12. The in-vitro results in FIG. 24b validate the mutations and in-vivo results in FIG. 24a. The mutations in FIG. 24 include Q11H (SEQ ID No. 23), V12R (SEQ ID No. 24), A95C (SEQ ID No. 25), H123Q (SEQ ID No. 26), E127T (SEQ ID No. 27), M137T (SEQ ID No. 28), D176V (SEQ ID No. 29), D176Y (SEQ ID No. 30). P191S (SEQ ID No. 31), P191V (SEQ ID No. 32), F212L (SEQ ID No. 33), S268H (SEQ ID No. 34), AND T272A (SEQ ID No. 35). The screening results in FIGS. 24 and 25 are semi-quantitative to identify beneficial mutants that give greater than one-fold change of irone production as compared to pMT12.
FIGS. 25a to 25c (and Table 4) show the in-vivo testing results of other possible mutations that may be made to pMT12 to improve its in-vivo production of cis-α-irone. FIGS. 25a to 25c each include two dotted lines to account for a 10% error bar to show the normalized fold change of 0.9 and 1.1.
The four plasmids were transformed into E. coli BL21 (DE3), ΔaroA, ΔaroB, ΔaroC, ΔserC or E. coli BL21 (DE3), ΔaroA, ΔaroB, ΔaroC, ΔserC, ΔmetJ strains and plated on Agar plate containing LB media (10 g, tryptone. 5 g, yeast extract. 10 g, NaCl) supplemented with appropriate antibiotics (100 mg/L ampicillin, 34 mg/L chloramphenicol, 50 mg/L kanamycin, and 100 mg/L spectinomycin). One colony was picked and inoculate into LB media with antibiotics. 1% of overnight culture was inoculated into 1 ml fresh auto-inducing chemically defined media. The chemical media contains carbon source solution: 0.5 g/L glucose, 10 g/L glycerol; inducer: 30 mM lactose and base media: 2 g/L ammonium sulfate, 4.2 g/L KH2PO4, 11.24 g/L K2HPO4, 1.7 g/L citric acid, 0.5 g/L MgSO4, and 10 mL/L trace element solution. The trace element solution (100×) contained 0.25 g/L CoCl2·6H2O, 1.5 g/L MnSO4·4H2O, 0.15 g/L CuSO4·2H2O, 0.3 g/L H3BO3, 0.25 g/L Na2MoO4·2H2O, 0.8 g/L Zn(CH3COO)2, 5 g/L Fe(III) citrate, and 0.84 g/L ethylenediaminetetra-acetic acid (EDTA) at pH 8.0. The culture was grown at 28° C. for 3 days and the products were extracted with 1 ml hexane for GCMS analysis. An example of a fed-batch process for α-ionone Is briefly described, overnight culture was inoculated into 2 L chemical media comprising the base media and 5 g/L glucose, at 37° C. and 30% DO. pH was controlled at 7 with base solution (14% ammonia and 0.5 M NaOH). Feed media (500 g/L glucose and 5 g/L MgSO4) was added into bioreactor once OD600 reached 5, at a rate of 7.15-25.75 g/h glucose for about 4-5 h until OD600 reached ˜30-40. Subsequently, 0.1 mM IPTG was added to induce the production, and feeding rate was kept at a constant rate of 10 g/h glucose, and the temperature was reduced to 30° C. DO was adjusted to 2% or 10%. Feeding was stopped at 113 h when 2 L feeding media was finished, but the culture was further incubated for 24 h. To capture the evaporated products, the exhaust was connected to 25 ml sunflower oil.

| Molecule | Fold change in in-vivo cis-α-irone production |
| --- | --- |
| B1 | 1.90 |
| B2 | 1.55 |
| B3 | 2.24 |
| B4 | 1.26 |
| B5 | 1.80 |
| B6 | 2.52 |
| B7 | 2.90 |
| B8 | 3.14 |

Same assay, conditions: single mutations vs parent (pMT7 or pMT12)

| Molecule | in-vivo production of cis-α-irone (in words) |
| --- | --- |
| B9 | significant increase |
| B1 | significant improvement |
| B2 | significant improvement |
| B3 | significant increase; also recorded: significant improvement |
| B4 | significant increase |
| B5 | significant improvement |
| B6 | significant improvement |
| B7 | significant improvement |
| B10 | significant increase |
| B11 | increased cis-α-irone production in-vivo |
| B8 | significant improvement |
| B12 | increased cis-α-irone production in-vivo |

Assay: Cell lysate reaction of pMT enzymes with psi-ionone, irones quantified by HS-SPME-GCMS
Assay type: biochemical
Conditions: pMT1_E153 mutants; AUC vs non-mutated (=1)
Procedure, shortened: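 pMT1 site-saturation mutants were expressed in E. coli BL21(DE3) and lysed, and lysates were incubated 2 days at 28 °C with 0.2 mM SAM and 10 mg/L psi-ionone (plus caryophyllene) in 50 mM Tris pH 7, 10 mM MgCl2. Cis-α-irone was measured by HS-SPME-GCMS peak area and given as fold change over non-mutated enzyme.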

| Molecule | fold change in cis-α-irone produced |
| --- | --- |
| B13 | 0.2 |
| B14 | 0.1 |
| B15 | 0.0 |

Same assay, conditions: pMT1_M236 mutants; AUC vs non-mutated (=1)

| Molecule | fold change in cis-α-irone produced |
| --- | --- |
| B16 | 0.7 |
| B17 | 0.0 |
| B18 | 0.9 |
| B19 | 4.7 |

Same assay, conditions: pMT1_R160 mutants; AUC vs non-mutated (=1)

| Molecule | fold change in cis-α-irone produced |
| --- | --- |
| B20 | 0.0 |
| B21 | 0.0 |
| B22 | 1.5 |

Same assay, conditions: pMT1_S182 mutants; AUC vs non-mutated (=1)

| Molecule | fold change in cis-α-irone produced |
| --- | --- |
| B23 | 0.84 |

Same assay, conditions: pMT1_Y200 mutants; AUC vs non-mutated (=1)

| Molecule | fold change in cis-α-irone produced |
| --- | --- |
| B24 | 0.0 |
| B25 | 0.1 |
| B26 | 0.0 |
